T1: CaNAC6 (GST-NAC6 fusion) (Capsicum annuum, UniProt A0A1U8EDX1 1-299)
T1 sequence: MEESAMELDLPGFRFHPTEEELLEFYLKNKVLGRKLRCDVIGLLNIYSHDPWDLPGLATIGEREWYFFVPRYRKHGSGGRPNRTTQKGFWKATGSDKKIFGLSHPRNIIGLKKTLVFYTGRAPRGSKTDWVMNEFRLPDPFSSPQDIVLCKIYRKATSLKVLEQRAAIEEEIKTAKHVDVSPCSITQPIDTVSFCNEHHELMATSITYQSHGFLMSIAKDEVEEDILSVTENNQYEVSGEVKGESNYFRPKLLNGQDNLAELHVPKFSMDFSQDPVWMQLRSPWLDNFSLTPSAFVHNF

B1: CaSLR1 SNBE3 mutant probe (dsDNA)
DNA 1: TCTTAGTACTTATACCTCAAGGCGCAAGG
DNA 2: CCTTGCGCCTTGAGGTATAAGTACTAAGA
B2: CaSLR1 SNBE1 mutant probe (dsDNA)
DNA 1: CTTTTGGATTTGTCTTGTAAGAAGATCAA
DNA 2: TTGATCTTCTTACAAGACAAATCCAAAAG
B3: CaSLR1 SNBE2 mutant probe (dsDNA)
DNA 1: GTTGTGTTTCTCTTTTATACGTTGGTCGT
DNA 2: ACGACCAACGTATAAAAGAGAAACACAAC

molecular target: T1, CaNAC6 (GST-NAC6 fusion); test: EMSA; LightShift chemiluminescence EMSA kit (Bes5003), 6% acrylamide gel; buffer, salt, pH and temperature not stated; conditions: protein: recombinant; tags: GST; chain copies: 2; label: biotin

Binding result, no binding:
B1, B2, B3
